Measured values from publication PMC3327659.

Legend:
[1] = molecular target: T1, DR0865 (Fur homologue) (Deinococcus radiodurans R1?) (UniProt Q9RW04); assay: EMSA; details: 30 mM Tris-HCl pH 6.8, 50 mM NaCl, 5% glycerol, 50 ug/mL calf thymus DNA, 50 ug/mL BSA, Mn2+ or Fe2+ (varied), 10 nM FITC-DNA, 30 min at 4 C; 5% native PAGE
T1 sequence: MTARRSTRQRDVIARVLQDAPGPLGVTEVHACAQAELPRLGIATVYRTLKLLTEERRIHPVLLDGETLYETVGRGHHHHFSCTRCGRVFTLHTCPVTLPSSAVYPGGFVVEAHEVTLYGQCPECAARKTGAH

[2] = molecular target: T2, DR2539 (Deinococcus radiodurans R1 (ATCC13939)) (UniProt Q9RRF3); assay: EMSA; details: 30 mM Tris-HCl pH 6.8, 50 mM NaCl, 5% glycerol, 50 ug/mL calf thymus DNA, 50 ug/mL BSA, Mn2+ or Fe2+ (varied), 10 nM FITC-DNA, 30 min at 4 C; 5% native PAGE
T2 sequence: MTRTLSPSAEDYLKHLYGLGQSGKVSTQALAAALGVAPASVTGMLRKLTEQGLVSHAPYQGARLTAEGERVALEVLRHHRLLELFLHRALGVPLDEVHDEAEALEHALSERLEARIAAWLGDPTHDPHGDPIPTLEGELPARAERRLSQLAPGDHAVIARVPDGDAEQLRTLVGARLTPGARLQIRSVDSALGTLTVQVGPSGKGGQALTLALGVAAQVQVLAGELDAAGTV

| Sequence | binding [1] | binding [2] |
| --- | --- | --- |
| CAGGCTGGGAGAACGGGAATCCATGGCCTTTATTTTAGGCGCGACTAAAATAGTTGTCCAACGGCGTGGGCTTGAGTTCGTCTTAAAGGCCGACTTTTTTGTGAAAAATGCCTCTTTCCCAAGATCCAGTCAGATTCCGTCACGCTGGGTCATCTGGTTTTCAGGGTGCTGTCACATATTTGCTAGAGGCTC (double strand) [p1709b (mntH promoter with inverted repeat)] | no binding | binds |
| GAGCCTCTAGCAAATATGTGACAGCACCCTGAAAACCAGATGACCCAGCGTGACGGAATCTGACTGGATCTTGGGAAAGAGGCATTTTTCACAAAAAAGTCGGCCTTTAAGACGAACTCAAGCCCACGCCGTTGGACA (double strand) [p1709a (mntH promoter lacking inverted repeat)] |  | no binding |
